Data on one protein can be found in publication PMC6299077 (Nature Communications, 2018).

This data set concerns the molecule itself. Briefly: SEC; […] (~2.7–27 μM), […] (pH 4.4–5.6); […]. (SEC sorts molecules by how far they enter the pores of the column.)

B1: tHN of BoNT/A1 (beltless translocation domain of botulinum neurotoxin A1, residues K547–K871) (domain or fragment)
chain: KYTMFHYLRAQEFEHGKSRIALTNSVNEALLNPSRVYTFFSSDYVKKVNKATEAAMFLGWVEQLVYDFTDETSEVSTTDKIADITIIIPYIGPALNIGNMLYKDDFVGALIFSGAVILLEFIPEIAIPVLGTFALVSYIANKVLTVQTIDNALSKRNEKWDEVYKYIVTNWLAKVNTQIDLIRKKMKEALENQAEATKAIINYQYNQYTEEEKNNINFNIDDLSSKLNESINKAMININKFLNQCSVSYLMNSMIPYGVKRLEDFDASLKDALLKYIYDNRGTLIGQVDRLKDKVNNTLSTDIPFQLSKYVDNQRLLSTFTEYIK
With B1, the binding result is reported as “binds”.
